Assay results as given in patent publication US20160108105A1.

Molecular target: FcγRI (UniProt P12314)
Assay: ELISA, coated protein, soluble FcγRI 2 µg/ml

UniProt P12314, sequence (P12314 16-288 limits assumed): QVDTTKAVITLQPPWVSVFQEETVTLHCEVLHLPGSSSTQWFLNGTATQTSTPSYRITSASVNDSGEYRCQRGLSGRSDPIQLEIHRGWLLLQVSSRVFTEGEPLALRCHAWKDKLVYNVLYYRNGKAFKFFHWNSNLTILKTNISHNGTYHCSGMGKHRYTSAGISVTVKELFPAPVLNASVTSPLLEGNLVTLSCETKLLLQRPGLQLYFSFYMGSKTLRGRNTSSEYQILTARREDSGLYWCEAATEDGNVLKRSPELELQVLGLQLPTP

hGH-chimeric IgG4 variant: 4 amino acids at the N-terminus of IgG4 Fc CH2 domain replaced with 2 amino acids of IgD CH2 domain (Fc fusion)
FcγRI binding ability relative to hGH-IgG4Fc-wt (fold of hGH-IgG4Fc-wt): 0.5
